This series addresses T1, alpha-fetoprotein (AFP) (UniProt P02771 19-609).
T1 sequence: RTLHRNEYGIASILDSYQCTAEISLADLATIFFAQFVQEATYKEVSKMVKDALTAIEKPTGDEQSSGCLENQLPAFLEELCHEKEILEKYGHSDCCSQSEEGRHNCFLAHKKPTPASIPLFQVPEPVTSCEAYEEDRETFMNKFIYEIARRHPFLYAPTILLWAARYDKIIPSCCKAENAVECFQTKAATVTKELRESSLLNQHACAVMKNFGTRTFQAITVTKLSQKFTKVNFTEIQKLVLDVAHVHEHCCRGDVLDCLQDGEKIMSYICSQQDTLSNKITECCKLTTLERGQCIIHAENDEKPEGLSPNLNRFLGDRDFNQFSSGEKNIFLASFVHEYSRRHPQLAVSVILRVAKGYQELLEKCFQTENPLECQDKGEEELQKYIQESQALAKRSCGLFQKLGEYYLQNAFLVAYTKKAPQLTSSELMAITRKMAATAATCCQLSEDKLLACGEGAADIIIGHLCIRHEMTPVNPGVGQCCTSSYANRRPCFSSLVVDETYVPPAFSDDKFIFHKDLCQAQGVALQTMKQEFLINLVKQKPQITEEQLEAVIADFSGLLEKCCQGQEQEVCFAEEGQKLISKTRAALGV
As to the kind of experiment: capillary electrophoresis (CE-LIF); CE-LIF: 10 uM FAM-aptamer with 100 ug/ml AFP, 25 C, PVA-coated capillary, -8 kV with 0.5 psi; CE buffer composition and pH not given in the material. As to conditions: protein: commercial; label: 5' 6-FAM.

B1: AP250 (ssDNA)
DNA: GTGACGCTCCTAACGCTGACACAGTTGCTAAGAGCCGCCTCTGAACCTATCGAGGCCTGTCCGTCCGAACCAATC
For the molecule B1, the binding result is “binds”.

B2: AP273 (ssDNA)
DNA: GTGACGCTCCTAACGCTGACTCAGGTGCAGTTCTCGACTCGGTCTTGATGTGGGTCCTGTCCGTCCGAACCAATC
Broadly, the Kd is the constant that tells how readily two partners part at equilibrium. The molecule B2 had an equilibrium dissociation constant (Kd) of 500 nM.

B3: AP244 (ssDNA)
DNA: GTGACGCTCCTAACGCTGACGGCCCGTCAATCCCCGCGTATCCATTGGTCCTTTACCTGTCCGTCCGAACCAATC
B3: the affinity, expressed as Kd, was 4800 nM.

B4: AP211 (ssDNA)
DNA: GTGACGCTCCTAACGCTGACTTTTTGGGAATGCGTATGTATGCTCGCCACGTACGCCTGTCCGTCCGAACCAATC
B4: the binding result is “no binding”.

B5: AP206 (ssDNA)
DNA: GTGACGCTCCTAACGCTGACTTTTAATTCTTGTTTATTGGTATATCCGCCTCTGACCTGTCCGTCCGAACCAATC
Regarding B5, the binding result was “binds”.

Values taken from paper PMC4620443, “Screening and Identifying a Novel ssDNA Aptamer against Alpha-fetoprotein Using CE-SELEX”.
